Results as given in IntAct's records for PubMed 31515488.

B1: Transcription factor 12 (Homo sapiens), Q99081 (parent)
chain: MNPQQQRMAAIGTDKELSDLLDFSAMFSPPVNSGKTRPTTLGSSQFSGSGIDERGGTTSWGTSGQPSPSYDSSRGFTDSPHYSDHLNDSRLGAHEGLSPTPFMNSNLMGKTSERGSFSLYSRDTGLPGCQSSLLRQDLGLGSPAQLSSSGKPGTAYYSFSATSSRRRPLHDSAALDPLQAKKVRKVPPGLPSSVYAPSPNSDDFNRESPSYPSPKPPTSMFASTFFMQDGTHNSSDLWSSSNGMSQPGFGGILGTSTSHMSQSSSYGNLHSHDRLSYPPHSVSPTDINTSLPPMSSFHRGSTSSSPYVAASHTPPINGSDSILGTRGNAAGSSQTGDALGKALASIYSPDHTSSSFPSNPSTPVGSPSPLTGTSQWPRPGGQAPSSPSYENSLHSLQSRMEDRLDRLDDAIHVLRNHAVGPSTSLPAGHSDIHSLLGPSHNAPIGSLNSNYGGSSLVASSRSASMVGTHREDSVSLNGNHSVLSSTVTTSSTDLNHKTQENYRGGLQSQSGTVVTTEIKTENKEKDENLHEPPSSDDMKSDDESSQKDIKVSSRGRTSSTNEDEDLNPEQKIEREKERRMANNARERLRVRDINEAFKELGRMCQLHLKSEKPQTKLLILHQAVAVILSLEQQVRERNLNPKAACLKRREEEKVSAVSAEPPTTLPGTHPGLSETTNPMGHM
partner: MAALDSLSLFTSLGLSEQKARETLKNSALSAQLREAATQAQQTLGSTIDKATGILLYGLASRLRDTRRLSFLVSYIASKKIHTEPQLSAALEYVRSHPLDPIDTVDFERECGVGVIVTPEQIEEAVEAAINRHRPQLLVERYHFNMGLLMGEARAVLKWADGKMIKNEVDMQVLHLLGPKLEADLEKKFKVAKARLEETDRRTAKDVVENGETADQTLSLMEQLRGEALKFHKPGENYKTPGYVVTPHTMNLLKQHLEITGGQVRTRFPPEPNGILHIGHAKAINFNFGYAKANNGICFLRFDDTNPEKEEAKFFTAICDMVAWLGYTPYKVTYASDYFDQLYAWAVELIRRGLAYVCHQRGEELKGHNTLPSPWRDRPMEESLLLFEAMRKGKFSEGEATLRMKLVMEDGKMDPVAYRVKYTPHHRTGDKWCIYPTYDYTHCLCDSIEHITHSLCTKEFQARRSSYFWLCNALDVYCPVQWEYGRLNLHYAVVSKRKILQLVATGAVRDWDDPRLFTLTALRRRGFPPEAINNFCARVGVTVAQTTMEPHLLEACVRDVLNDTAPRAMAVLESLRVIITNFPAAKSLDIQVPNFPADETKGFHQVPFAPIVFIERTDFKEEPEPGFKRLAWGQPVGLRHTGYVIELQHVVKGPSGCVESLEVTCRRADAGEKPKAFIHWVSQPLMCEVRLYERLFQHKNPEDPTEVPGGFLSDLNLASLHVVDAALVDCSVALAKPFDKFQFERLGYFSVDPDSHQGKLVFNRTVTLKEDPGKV
B2: Coiled-coil domain-containing protein 185 (Homo sapiens), Q8N715 (parent)
chain: MAGFSHFSQPPYRDLWEPPRPGGERESTQRLGGQRSGADSTACSRAGTPGAESEAGACWLHPHCSFTPRPRRRGCSDSLRGSRSLSDVARRPLERSRKHRPRSRRLEDAWGETGTKPRPAWQPQTQLPPQRPQPCPHYPLAQGDSPPPCPGGAGTPLSGTFRVEKAQGGDQWAVPLGRHLGRWSPSSVPSERSSVPSQKFKRHSACVCAQKRDSSDQVESLASRDSQPLASSKEMRSPHTQVLKSKLEEVVVSSQDQQIVALVLTRLKKAQRIRELQQQAAKAWEELKRSDQKVQMTLERERRLLLRQSQEQWQEKEQRKTLQSPEQRGLRRDSQRKNVPPGESRWKEQPEDQESPRQEKLEKARAQAEHRKQCQVRRLREQEKMLRNLREQHSLQLQRRLVEACRKRHLHAVEGQKKVQDTNLSSLINYQARKVLMDCQAKAEELLRQLSLEQSFQRSQEIHQGLRKERQRELREKAQKEEEQLQQARWRAGESEEQRKMRKRILVELADEKIRQARSHVHKTTRDKVQHLRELNHLREKNHHILKLKAEKEEKCHIEGIKEAIKKKEQRVQHISQGKDPNFQEFQKLPQASRREERAPPNSSLDQMVLEAQLRACQQNRGY
partner: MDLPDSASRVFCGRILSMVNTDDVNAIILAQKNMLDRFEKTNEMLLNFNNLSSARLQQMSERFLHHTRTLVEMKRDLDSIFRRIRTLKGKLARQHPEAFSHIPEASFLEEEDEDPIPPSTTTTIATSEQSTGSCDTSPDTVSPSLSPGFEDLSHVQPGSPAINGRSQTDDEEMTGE
B3: Isoform Long of Autophagy protein 5 (Homo sapiens), Q9H1Y0-1 (parent)
chain: MTDDKDVLRDVWFGRIPTCFTLYQDEITEREAEPYYLLLPRVSYLTLVTDKVKKHFQKVMRQEDISEIWFEYEGTPLKWHYPIGLLFDLLASSSALPWNITVHFKSFPEKDLLHCPSKDAIEAHFMSCMKEADALKHKSQVINEMQKKDHKQLWMGLQNDRFDQFWAINRKLMEYPAEENGFRYIPFRIYQTTTERPFIQKLFRPVAADGQLHTLGDLLKEVCPSAIDPEDGEKKNQVMIHGIEPMLETPLQWLSEHLSYPDNFLHISIIPQPTD
partner: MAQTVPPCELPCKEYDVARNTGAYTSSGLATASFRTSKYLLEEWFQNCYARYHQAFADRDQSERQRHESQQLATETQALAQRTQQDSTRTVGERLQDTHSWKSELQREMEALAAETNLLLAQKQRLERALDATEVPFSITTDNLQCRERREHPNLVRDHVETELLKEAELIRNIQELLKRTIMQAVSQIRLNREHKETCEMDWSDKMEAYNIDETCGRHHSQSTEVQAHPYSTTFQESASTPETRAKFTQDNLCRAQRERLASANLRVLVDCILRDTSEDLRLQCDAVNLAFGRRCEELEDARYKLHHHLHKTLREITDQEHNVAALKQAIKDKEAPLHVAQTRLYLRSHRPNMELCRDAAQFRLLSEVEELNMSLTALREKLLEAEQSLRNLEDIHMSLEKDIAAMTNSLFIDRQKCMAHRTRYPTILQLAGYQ

Variants of: B1
Conditions: with syq_human QARS1, P47897

| Variant | effect of a mutation on the interaction |
| --- | --- |
| N479S | with no effect |
| L483R | with no effect |
| D565V | with no effect |

Variants of: B2
Conditions: with kxdl1_human KXD1, Q9BQD3

| Variant | effect of a mutation on the interaction |
| --- | --- |
| S603G | with no effect |

Variants of: B3
Conditions: with tekt4_human TEKT4, Q8WW24

| Variant | effect of a mutation on the interaction |
| --- | --- |
| K58M | with no effect |
